Reference: patent US20060127985A1 (IMMUNEX, published 2006)

Assays:
[1] = target: T1, murine 4-1BB ligand (4-1BB-L), cell surface (murine, UniProt P41274 1-309); assay: Scatchard analysis, 125I-4-1BB/Fc binding to EL4 6.1C10 cells
T1 construct: Native on EL4 6.1C10 and EL4 6.1 thymoma cells, the source of the cDNA; Recombinant full length on transfected COS and CV-1 cells; also called mu4-1BB-L; native surface mu4-1BB-L
T1 sequence: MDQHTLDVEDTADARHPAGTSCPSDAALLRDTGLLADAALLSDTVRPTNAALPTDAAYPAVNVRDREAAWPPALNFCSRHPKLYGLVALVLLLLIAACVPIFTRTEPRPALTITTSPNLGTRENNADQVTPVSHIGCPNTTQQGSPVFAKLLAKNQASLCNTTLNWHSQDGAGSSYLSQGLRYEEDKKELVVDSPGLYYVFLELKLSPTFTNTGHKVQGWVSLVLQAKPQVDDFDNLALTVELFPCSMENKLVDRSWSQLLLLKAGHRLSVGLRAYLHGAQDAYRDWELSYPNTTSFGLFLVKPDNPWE
Protocol: Several cell lines were screened for the ability to bind the radioiodinated murine 4-1BB/Fc fusion protein described in Example 1. Briefly, quantitative binding studies were performed according to standard methodology, and Scatchard plots were derived for the various cell lines. […] The EL4 6.1C10 cell line was derived from a subclone designated EL4 6.1 by using a cell sorter to enrich for a cell population expressing high levels of murine type I Interleukin-1 receptor, as described in U.S. Pat. No. 4,968,607. EL4 6.1 had been derived from a mouse thymoma cell line EL-4 (ATCC TIB39) as described by MacDonald et al. (J. Immunol. 135:3944, 1985) and Lowenthal and MacDonald (J. Exp. Med. 164:1060, 1986).

[2] = target: T2, human 4-1BB ligand (4-1BB-L), cell surface (human, UniProt P41273 1-254); assay: slide autoradiography on transfected CV-1 cells
T2 construct: Native on the anti-CD3-stimulated PL1 (PL-1) T cell clone, the source of the cDNA; Recombinant full length on transfected CV-1/EBNA cells; also called hu4-1BB-L; clone 7A
T2 sequence (P41273 whole entry): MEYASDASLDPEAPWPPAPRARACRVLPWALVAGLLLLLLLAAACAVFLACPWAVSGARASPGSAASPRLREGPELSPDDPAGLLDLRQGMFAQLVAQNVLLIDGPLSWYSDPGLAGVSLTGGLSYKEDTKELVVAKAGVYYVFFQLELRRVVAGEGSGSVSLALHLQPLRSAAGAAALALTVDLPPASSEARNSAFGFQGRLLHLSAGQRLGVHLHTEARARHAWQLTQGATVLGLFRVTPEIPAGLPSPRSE

B1: murine 4-1BB/Fc fusion protein (Fc fusion)
chain: VQNSCDNCQPGTFCRKYNPVCKSCPPSTFSSIGGQPNCNICRVCAGYFRFKKFCSSTHNAECECIEGFHCLGPQCTRCEKDCRPGQELTKQGCKTCSLGTFNDQNGTGVCRPWTNCSLDGRSVLKTGTTEKDVVCGPPVVSFSPSTTISVTPEEPRSCDKTHTCPPCPAPELLGGPSVFLFPPKPKDTLMISRTPEVTCVVVDVSHEDPEVKFNWYVDGVEVHNAKTKPREEQYNSTYRVVSVLTVLHQDWLNGKDYKCKVSNKALPAPMQKTISKAKGQPREPQVYTLPPSRDELTKNQVSLTCLVKGFYPRHIAVEWESNGQPENNYKTTPPVLDSDGSFFLYSKLTVDKSRWQQGNVFSCSVMHEALHNHYTQKSLSLSPGK
modifications: 125I-radioiodinated where used as tracer
notes: The murine IL-7 leader of the vector is cleaved on secretion; Fc is joined through the BglII site; also called mu4-1BB/Fc; soluble murine 4-1BB/Fc
- Ka [1]: ~2e+09 M⁻¹
- binding result [2]: no binding
